Laboratory results from US20250051471A1, “Anti-Abcb1 Antibodies” (WILLIAM ROBERT ARATHOON LIVING TRUST DATED AUGUST 29, 2016, priority 2021, published 2025).

Tests used:
Type in all cases: cell-based
[1] = system: cynomolgus Red Blood Cells; assay: Antibody binding to cynomolgus red blood cells by flow cytometry; settings: percent of RBC in the R3 gate
Protocol: (§1) Antibody binding to human and cynomolgus RBC was assessed by flow cytometry. Normal human and cynomolgus whole blood was obtained from BiolVT. RBC were prepared by centrifugation of whole blood aliquots (0.5 mL) for 5 min at 500xg. Supernatant (plasma) was removed, and RBC washed 3 times in D-PBS+1 mM EDTA. After the final wash, the RBC were resuspended in D-PBS+1 mM EDTA to a final volume of 0.5 mL. Washed RBC were then diluted in flow cytometry buffer (D-PBS+2% FBS+0.05% sodium azide) to 2% and dispensed at […] into 96-well plates. An equivalent volume ([…]) of antibody serially diluted in flow cytometry buffer to 2× final was added to the RBC, and the mixture incubated for 1 hour at room temperature. Next, RBC were washed 3 times with flow cytometry buffer and resuspended in 50 μL of Alexa Fluor®647 conjugated Fab fragment goat anti-human IgG diluted 1:200 in flow cytometry buffer. After 20 minutes at room temperature RBC were washed twice, resuspended in flow cytometry buffer and analyzed using an Invitrogen™ Attune™ NXT flow cytometer. […] Left panel, RBC are gated (R1) based on forward and side scatter. Middle panel, a second gate (R2) is applied to eliminate any remaining doublets or aggregates. Right panel, fluorescence of the R2 gated cells is assessed and a final gate (R3) is set using unstained RBC. Cells falling in the R3 gate are defined as “positive” for binding and reported as the percent (of R2 gated cells) that fall in the R3 gate. The results are presented at percent positive which represents the percent of RBC in the R3 gate.

[2] = system: human Red Blood Cells; assay: Antibody binding to human red blood cells by flow cytometry; settings: percent of RBC in the R3 gate
Protocol: as §1

[3] = system: N6/ADR cells; assay: Cytotoxicity potency assay (antibody titrated, vincristine constant)
Protocol: The relative potency of the samples was evaluated using N6/ADR cells. These cells expressed both ABCB1 and CD47 with the expression of CD47 ˜40-fold higher than ABCB1 as determined by staining with R-phycoerythrin (R-PE) conjugated, commercially available antibodies against ABCB1 (UIC2, Biolegend) and CD47 (CC2C6, Biolegend). This assay also examined the effect of antibodies on vincristine-induced cytotoxicity using the drug-resistant cell line, N6/ADR. However, in this assay format the concentration of vincristine was held constant while the ABCB1 x CD47 BsAbs (or isotype control antibodies) were serially diluted. This assay measured antibody IC50. Lower IC50 meant higher antibody potency.
The potency assay was performed as follows. Cells were plated in 0.05 mL of assay media at 5000 cells/well in white flat bottom 96-well tissue culture plates and incubated overnight at 37° C., 5% CO2. […] An equivalent volume (0.05 mL) diluted antibody/vincristine mixture was transferred to the N6/ADR cells and incubated at 37° C., in 5% CO^2. After 72 hours, plates were removed from the incubator and allowed to equilibrate to room temperature. Viability was assessed using the Promega® CellTiter-Glo® Luminescent Cell Viability Assay according to the manufacturer's recommended protocol.

Row | Molecule | Binding to cynomolgus Red Blood Cells % Positive Cy744 ([1]; donor Cy744) | Binding to cynomolgus Red Blood Cells % Positive Cy745 ([1]; donor Cy745) | Binding to cynomolgus Red Blood Cells % Positive Cy747 ([1]; donor Cy747) | Binding to human Red Blood Cells % positive D834 ([2]; donor D834) | Binding to human Red Blood Cells % positive D835 ([2]; donor D835) | Binding to human Red Blood Cells % positive D836 ([2]; donor D836) | Binding to human Red Blood Cells % positive D837 ([2]; donor D837) | potency increasing cytotoxicity [3]
1 | 15D3hmzhG1 HIR2/Fc/B1.89v1 huL1(KV2) hmz LC: humanized anti-ABCB1 mono arm antibody with B1.89v1 huL1(KV2) light chain (antibody, left off: another chain or arm of the molecule, humanized anti-ABCB1 mono arm antibody with B1.89v1 huL1(KV2) light chain) heavy: EVQLVESGGVVVQPGGSLRLSCAASGFTFSRYTMSWVRQAPGKGLEWVATISSGGGNTYYPDSVKGRFTVSRDNSKNSLYLQMNSLRTEDTALYYCARYGAGDAWFAYWGQGTLVTVSSASTKGPSVFPLAPSSKSTSGGTAALGCLVKDYFPEPVTVSWNSGALTSGVHTFPAVLQSSGLYSLSSVVTVPSSSLGTQTYICNVNHKPSNTKVDKRVEPKSCDKTHTCPPCPAPELLGGPSVFLFPPKPKDTLMISRTPEVTCVVVDVSHEDPEVKFNWYVDGVEVHNAKTKPREEQYNSTYRVVSVLTVLHQDWLNGKEYKCKVSNKALPAPIEKTISKAKGQPREPQVCTLPPSREEMTKNQVSLSCAVKGFYPSDIAVEWESNGQPENNYKTTPPVLDSDGSFVLVSKLTVDKSRWQQGNVFSCSVMHEALHNHYTQKSLSLSPG light: DIVMTQSPLSLPVTPGEPASISCRSSQTIVHSNGNTYLEWYLQKPGQSPQLLIYKVSKRFSGVPDRFSGSGSGTDFTLKISRVEAEDVGVYYCFQASHFPRTFGQGTKLEIKRTVAAPSVFIFPPSDEQLKSGTASVVCLLNNFYPREAKVQWKVDNALQSGNSQESVTEQDSKDSTYSLSSTLTLSKADYEKHKVYACEVTHQGLSSPVTKSFNRGEC | 0.3% | 0.6% | 4.0% | 0.2% | 0.2% | 0.1% | 0.1% | lesser potency than the corresponding bispecific antibodies
2 | 15D3 hmz HIR2/Fc/B1VL6/CDR3v2a hmz: humanized anti-ABCB1 mono arm antibody with B1VL6/CDR3v2a light chain (antibody, left off: another chain or arm of the molecule; small tags and cut ends) heavy: EVQLVESGGVVVQPGGSLRLSCAASGFTFSRYTMSWVRQAPGKGLEWVATISSGGGNTYYPDSVKGRFTVSRDNSKNSLYLQMNSLRTEDTALYYCARYGAGDAWFAYWGQGTLVTVSSASTKGPSVFPLAPSSKSTSGGTAALGCLVKDYFPEPVTVSWNSGALTSGVHTFPAVLQSSGLYSLSSVVTVPSSSLGTQTYICNVNHKPSNTKVDKRVEPKSCDKTHTCPPCPAPELLGGPSVFLFPPKPKDTLMISRTPEVTCVVVDVSHEDPEVKFNWYVDGVEVHNAKTKPREEQYNSTYRVVSVLTVLHQDWLNGKEYKCKVSNKALPAPIEKTISKAKGQPREPQVCTLPPSREEMTKNQVSLSCAVKGFYPSDIAVEWESNGQPENNYKTTPPVLDSDGSFVLVSKLTVDKSRWQQGNVFSCSVMHEALHNHYTQKSLSLSPG light: DIVMTQSPLSLPVTPGEPASISCRSSQSLVHSNGNTYLEWYLQKPGQSPQLLIYKVSNRFSGVPDRFSGSGSGTDFTLKISRVEAEDVGVYYCFQGSHFPRTFGQGTKLEIKRTVAAPSVFIFPPSDEQLKSGTASVVCLLNNFYPREAKVQWKVDNALQSGNSQESVTEQDSKDSTYSLSSTLTLSKADYEKHKVYACEVTHQGLSSPVTKSFNRGEC |  |  |  |  |  |  |  | lesser potency than the corresponding bispecific antibodies
